Article doi:10.1101/2022.10.17.512557

Biological target: proteasomal catalytic (20S) particle (rat (endogenous in cultured cortical neurons)) (UniProt P48004)
Experiment: native gel or EMSA

UniProt P48004, sequence (P48004 whole entry, looked up): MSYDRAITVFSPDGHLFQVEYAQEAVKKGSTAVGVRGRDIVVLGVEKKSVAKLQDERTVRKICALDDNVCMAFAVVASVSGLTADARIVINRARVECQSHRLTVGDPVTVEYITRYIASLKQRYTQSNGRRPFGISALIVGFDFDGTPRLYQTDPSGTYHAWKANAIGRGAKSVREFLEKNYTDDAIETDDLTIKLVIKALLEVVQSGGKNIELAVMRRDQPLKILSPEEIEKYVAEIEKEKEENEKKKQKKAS

percent of total 20S in the free 20S band (neurite fraction): 50%
Substance: proteasomal regulatory (19S) particle (from UniProt P62193 1-440) (complex)
